Data taken from PMC9798103.
pKd: −log10 of the molar value.

Molecular target: F-actin (polymerised from Ca2+-ATP G-actin of rabbit skeletal muscle) (rabbit) (UniProt P68135)
Assay: co-sedimentation

N-terminal half of RHGF-1 without the PDZ domain (RHGF-1-N-ΔPDZ) (domain or fragment)
pKd: 4.85
